Target: T1, IL-7R/Fc fusion protein
T1 construct: Loaded on the SPR chip; also called IL-7 receptor
Assay: SPR, IL-7R/Fc loaded chip, Scrubber2
Method: Fc fusion protein was determined by surface plasmon resonance (SPR). Association (Ka), Dissociation (Kd) and total binding constant (KD) were calculated using the Scrubber2 program (BioLogic Software).

T1 sequence (P16871 whole entry, the tested form may be a part): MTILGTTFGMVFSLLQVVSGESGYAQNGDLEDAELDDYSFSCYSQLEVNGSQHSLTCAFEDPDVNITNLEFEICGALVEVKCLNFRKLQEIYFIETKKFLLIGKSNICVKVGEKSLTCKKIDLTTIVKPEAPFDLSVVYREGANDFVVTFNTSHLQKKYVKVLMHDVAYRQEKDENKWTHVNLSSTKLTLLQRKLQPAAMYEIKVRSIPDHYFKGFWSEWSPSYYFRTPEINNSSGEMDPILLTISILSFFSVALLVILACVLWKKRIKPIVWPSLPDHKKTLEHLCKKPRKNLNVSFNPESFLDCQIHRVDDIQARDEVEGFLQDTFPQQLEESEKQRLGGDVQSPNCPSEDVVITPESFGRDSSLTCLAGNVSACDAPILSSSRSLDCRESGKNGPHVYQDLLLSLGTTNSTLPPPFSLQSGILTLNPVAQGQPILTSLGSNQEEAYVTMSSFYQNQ

B1: IL-7AT, attenuated IL-7 with Thr97 substituted by Val (ligand)
chain: DCDIEGKDGKQYESVLMVSIDQLLDSMKEIGSNCLNNEFNFFKRHICDANKEGMFLFRAARKLRQFLKMNSVGDFDLHLLKVSEGTTILLNCTGQVKGRKPAALGEAQPTKSLEENKSLKEQKKLNDLCFLKRLLQEIKTCWNKILMGTKEH
notes: also called IL-7 ligand; HMM-IL-7AT
Kd: 100 nM

Source: US9266937 (UNIVERSITY OF CENTRAL FLORIDA RESEARCH FOUNDATION, dated 2016)
